# Source: patent publication US20090092595A1, “Suppression of sPLA2-integrin binding for treating an inflammatory condition” (REGENTS OF THE UNIVERSITY OF CALIFORNIA, priority 2007, published 2009)
# T1: αvβ3 on β3-CHO cells (UniProt A0A9J7JSN3+P05106)
# T1 construct: expressed in transfected cells; host or cells: CHO
# T1 sequence (P05106 27-788): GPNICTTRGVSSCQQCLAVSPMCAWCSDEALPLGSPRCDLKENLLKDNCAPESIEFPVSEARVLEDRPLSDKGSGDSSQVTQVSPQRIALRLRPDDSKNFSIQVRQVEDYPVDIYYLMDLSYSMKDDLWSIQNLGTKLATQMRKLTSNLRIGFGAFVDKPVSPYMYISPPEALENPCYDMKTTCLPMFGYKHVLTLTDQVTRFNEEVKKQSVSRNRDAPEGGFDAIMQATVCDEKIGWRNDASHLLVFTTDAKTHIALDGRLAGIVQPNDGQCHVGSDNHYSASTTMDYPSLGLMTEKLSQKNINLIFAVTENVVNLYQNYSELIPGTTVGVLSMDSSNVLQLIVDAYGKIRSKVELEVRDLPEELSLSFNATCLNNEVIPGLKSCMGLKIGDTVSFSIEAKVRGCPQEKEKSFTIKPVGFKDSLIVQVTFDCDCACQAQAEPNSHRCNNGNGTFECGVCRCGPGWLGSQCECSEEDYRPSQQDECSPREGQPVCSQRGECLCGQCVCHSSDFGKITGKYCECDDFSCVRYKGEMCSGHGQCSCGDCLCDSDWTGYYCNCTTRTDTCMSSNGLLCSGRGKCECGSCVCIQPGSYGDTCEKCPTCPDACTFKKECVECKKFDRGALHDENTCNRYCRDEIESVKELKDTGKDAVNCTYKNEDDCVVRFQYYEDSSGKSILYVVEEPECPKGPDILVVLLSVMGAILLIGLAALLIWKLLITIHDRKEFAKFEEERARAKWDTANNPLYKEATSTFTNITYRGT
# T1 sequence (A0A9J7JSN3 31-1043): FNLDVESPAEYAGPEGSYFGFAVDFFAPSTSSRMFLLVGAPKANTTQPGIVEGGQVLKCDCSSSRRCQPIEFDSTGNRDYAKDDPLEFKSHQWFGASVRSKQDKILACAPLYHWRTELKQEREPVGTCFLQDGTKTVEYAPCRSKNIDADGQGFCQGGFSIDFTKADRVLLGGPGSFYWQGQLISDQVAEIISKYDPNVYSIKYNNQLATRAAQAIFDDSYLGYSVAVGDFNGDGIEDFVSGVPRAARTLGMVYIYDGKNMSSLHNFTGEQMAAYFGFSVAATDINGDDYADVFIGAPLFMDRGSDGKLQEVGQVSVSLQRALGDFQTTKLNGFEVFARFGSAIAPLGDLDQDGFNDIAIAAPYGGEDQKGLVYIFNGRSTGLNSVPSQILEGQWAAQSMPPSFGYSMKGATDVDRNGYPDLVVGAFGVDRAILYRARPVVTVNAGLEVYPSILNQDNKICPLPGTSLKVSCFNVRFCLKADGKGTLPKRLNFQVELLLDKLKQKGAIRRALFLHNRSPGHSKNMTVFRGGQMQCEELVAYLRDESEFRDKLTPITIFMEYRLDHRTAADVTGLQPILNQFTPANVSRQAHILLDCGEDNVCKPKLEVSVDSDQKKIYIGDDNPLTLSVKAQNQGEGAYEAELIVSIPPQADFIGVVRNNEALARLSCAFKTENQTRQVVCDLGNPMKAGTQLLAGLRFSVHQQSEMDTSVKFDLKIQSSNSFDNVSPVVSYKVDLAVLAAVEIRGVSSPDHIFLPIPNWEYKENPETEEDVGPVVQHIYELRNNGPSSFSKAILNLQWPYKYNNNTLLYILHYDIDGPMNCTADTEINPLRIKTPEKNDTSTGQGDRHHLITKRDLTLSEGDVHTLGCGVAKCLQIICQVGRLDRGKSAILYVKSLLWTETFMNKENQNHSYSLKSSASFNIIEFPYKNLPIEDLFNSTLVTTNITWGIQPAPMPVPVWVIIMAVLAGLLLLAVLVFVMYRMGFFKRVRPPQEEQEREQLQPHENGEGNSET
# B1: FITC-sPLA2-IIA: sPLA2-IIA labeled with FITC using Fluorescein labeling kit (conjugate)
# chain: NLVNFHRMIKLTTGKEAALSYGFYGCHCGVGGRGSPKDATDRCCVTHDCCYKRLEKRGCGTKFLSYKFSNSGSRITCAKQDSCRSQLCECDKAAATCFARNKTTYNKKYQYYSNKHCRGSTPRC
# modifications: left off: small tags and cut ends
# notes: sPLA2-IIA labeled with FITC using Fluorescein labeling kit
# Target: T1, αvβ3 on β3-CHO cells
# Assay: Binding of FITC-labeled sPLA2-IIA to αvβ3 on the cell surface (flow cytometry)
# Type: cell-based, human
# Conditions: 10 μg/ml, 10 mM Mg2+, room temperature, 30 min
# Excerpt: FIG. 1. sPLA2-IIA binding to integrin αvβ3. a) Cell adhesion to sPLA2-IIA in an αvβ3- and proteoglycans-dependent manner. Wells of a 96-well microtiter plate were coated with sPLA2-IIA at indicated coating concentrations. Remaining protein-binding sites were blocked with BSA. CHO cells expressing recombinant αvβ3 (β3-CHO), mock-transfected CHO cells, proteoglycans-deficient CHO cell variant (pgs745), expressing recombinant αvβ3 (β3-745), and mock-transfected pgs745 cells (10^5 cells per well in 100 μl Tyrodes-HEPES with 1 mM MgCl2) were added to the wells. After incubating for 1 h at 37° C., unbound cells were removed by gentle rinsing and bound cells were quantified using endogenous phosphatase activity (Prater, C. A. et al., J. Cell Biol., 112:1031-1040 (1991)). Data is shown as means+/−SEM of triplicate experiments. b) Effect of anti-(33 mAb 7E3 on adhesion of β3-CHO cells to immobilized sPLA2-IIA. […] Bound FITC (FL1) and PE (FL2) were quantified in flow cytometry. […] Bound αvβ3 was detected using peroxidase-conjugated anti-6His antibody. Bound peroxidase activity was measured. […]
# Binding of FITC-labeled sPLA2-IIA to integrins on the cell surface sPLA2-IIA was labeled with FITC using Fluorescein labeling kit (Pierce) according to the manufacturer's instructions. […] Bound FITC (FL1) and PE (FL2) were quantified in flow cytometry.
molecule,measurement,value
B1,binding to cells expressing high-level αvβ3 vs little αvβ3,much higher levels
